Laboratory results as given in patent US20200262877A1, “ION CHANNEL-BINDING PEPTIDES AND METHODS OF USE THEREOF” (priority 2017, published 2020).

How the values were obtained:
5HT3a = biological target: T1, 5HT3a (Homo sapiens, UniProt P46098); experiment: Ion channel panel (IonWorks Barracuda): 5HT3a; type: cell-based
T1 construct: host or cells: HEK293 or CHO
T1 sequence (P46098 whole entry, looked up): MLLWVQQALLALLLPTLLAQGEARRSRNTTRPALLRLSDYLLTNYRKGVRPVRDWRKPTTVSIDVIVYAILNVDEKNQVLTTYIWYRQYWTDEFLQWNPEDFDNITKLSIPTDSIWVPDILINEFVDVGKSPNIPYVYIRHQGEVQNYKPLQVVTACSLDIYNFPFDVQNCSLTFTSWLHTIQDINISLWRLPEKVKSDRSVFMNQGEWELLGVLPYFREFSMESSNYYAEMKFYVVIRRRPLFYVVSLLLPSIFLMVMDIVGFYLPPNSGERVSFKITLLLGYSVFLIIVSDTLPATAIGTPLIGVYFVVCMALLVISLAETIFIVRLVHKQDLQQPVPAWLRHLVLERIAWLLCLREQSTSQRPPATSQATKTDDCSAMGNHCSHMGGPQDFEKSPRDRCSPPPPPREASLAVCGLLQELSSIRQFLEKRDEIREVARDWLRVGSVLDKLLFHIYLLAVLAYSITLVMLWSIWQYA
Outline: (§1)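 Peptides were tested in duplicate at final 20 μM and 200 nM, with concentration set by amino acid analysis, in HEPES-buffered saline. They were applied for at least 5 min to HEK293 or CHO cells transfected with each channel. Currents were expressed as % inhibition, 1-(Ipeptide/Icontrol)×100, or % activation, Ipeptide/Icontrol×100, against a channel-matched reference compound.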

α3β4 = biological target: T2, α3β4 (Homo sapiens, UniProt P30926+P32297); experiment: Ion channel panel (IonWorks Barracuda): α3β4; type: cell-based; details: 100% = no change, <100% = inhibition
T2 construct: host or cells: HEK293 or CHO
Outline: as §1

α4β2 = biological target: T3, α4β2 (Homo sapiens, UniProt P17787+P43681); experiment: Ion channel panel (IonWorks Barracuda): α4β2; type: cell-based; details: 100% = no change, <100% = inhibition
T3 construct: host or cells: HEK293 or CHO
Outline: as §1

Cav2.1 = biological target: T4, Cav2.1 (Homo sapiens, UniProt O00555); experiment: cell-based; details: 100% = no change, <100% = inhibition
T4 construct: host or cells: HEK293 or CHO
Outline: as §1

Cav2.2 = biological target: T5, Cav2.2 (Homo sapiens, UniProt Q00975); experiment: cell-based; details: 100% = no change, <100% = inhibition
T5 construct: host or cells: HEK293 or CHO
Outline: as §1

Kv2.1 = biological target: T6, Kv2.1 (Homo sapiens, UniProt Q14721); experiment: cell-based; details: 100% = no change, <100% = inhibition
T6 construct: host or cells: HEK293 or CHO
Outline: as §1

GABA = experiment: Ion channel panel (IonWorks Barracuda): GABA; type: cell-based; details: 100% = no change, <100% = inhibition
Outline: as §1

Nav1.5 = Nav1.5 (Homo sapiens, UniProt Q14524); experiment: in vitro; details: 100% = no change; for Activity of Nav1.5 with peptide, expressed as a percentage of the reference compound: peptide at 0.2 μM; for Activity of Nav1.5 with peptide (percentage of the reference compound): peptide at 20 μM
Chain of Nav1.5 (Q14524 whole entry): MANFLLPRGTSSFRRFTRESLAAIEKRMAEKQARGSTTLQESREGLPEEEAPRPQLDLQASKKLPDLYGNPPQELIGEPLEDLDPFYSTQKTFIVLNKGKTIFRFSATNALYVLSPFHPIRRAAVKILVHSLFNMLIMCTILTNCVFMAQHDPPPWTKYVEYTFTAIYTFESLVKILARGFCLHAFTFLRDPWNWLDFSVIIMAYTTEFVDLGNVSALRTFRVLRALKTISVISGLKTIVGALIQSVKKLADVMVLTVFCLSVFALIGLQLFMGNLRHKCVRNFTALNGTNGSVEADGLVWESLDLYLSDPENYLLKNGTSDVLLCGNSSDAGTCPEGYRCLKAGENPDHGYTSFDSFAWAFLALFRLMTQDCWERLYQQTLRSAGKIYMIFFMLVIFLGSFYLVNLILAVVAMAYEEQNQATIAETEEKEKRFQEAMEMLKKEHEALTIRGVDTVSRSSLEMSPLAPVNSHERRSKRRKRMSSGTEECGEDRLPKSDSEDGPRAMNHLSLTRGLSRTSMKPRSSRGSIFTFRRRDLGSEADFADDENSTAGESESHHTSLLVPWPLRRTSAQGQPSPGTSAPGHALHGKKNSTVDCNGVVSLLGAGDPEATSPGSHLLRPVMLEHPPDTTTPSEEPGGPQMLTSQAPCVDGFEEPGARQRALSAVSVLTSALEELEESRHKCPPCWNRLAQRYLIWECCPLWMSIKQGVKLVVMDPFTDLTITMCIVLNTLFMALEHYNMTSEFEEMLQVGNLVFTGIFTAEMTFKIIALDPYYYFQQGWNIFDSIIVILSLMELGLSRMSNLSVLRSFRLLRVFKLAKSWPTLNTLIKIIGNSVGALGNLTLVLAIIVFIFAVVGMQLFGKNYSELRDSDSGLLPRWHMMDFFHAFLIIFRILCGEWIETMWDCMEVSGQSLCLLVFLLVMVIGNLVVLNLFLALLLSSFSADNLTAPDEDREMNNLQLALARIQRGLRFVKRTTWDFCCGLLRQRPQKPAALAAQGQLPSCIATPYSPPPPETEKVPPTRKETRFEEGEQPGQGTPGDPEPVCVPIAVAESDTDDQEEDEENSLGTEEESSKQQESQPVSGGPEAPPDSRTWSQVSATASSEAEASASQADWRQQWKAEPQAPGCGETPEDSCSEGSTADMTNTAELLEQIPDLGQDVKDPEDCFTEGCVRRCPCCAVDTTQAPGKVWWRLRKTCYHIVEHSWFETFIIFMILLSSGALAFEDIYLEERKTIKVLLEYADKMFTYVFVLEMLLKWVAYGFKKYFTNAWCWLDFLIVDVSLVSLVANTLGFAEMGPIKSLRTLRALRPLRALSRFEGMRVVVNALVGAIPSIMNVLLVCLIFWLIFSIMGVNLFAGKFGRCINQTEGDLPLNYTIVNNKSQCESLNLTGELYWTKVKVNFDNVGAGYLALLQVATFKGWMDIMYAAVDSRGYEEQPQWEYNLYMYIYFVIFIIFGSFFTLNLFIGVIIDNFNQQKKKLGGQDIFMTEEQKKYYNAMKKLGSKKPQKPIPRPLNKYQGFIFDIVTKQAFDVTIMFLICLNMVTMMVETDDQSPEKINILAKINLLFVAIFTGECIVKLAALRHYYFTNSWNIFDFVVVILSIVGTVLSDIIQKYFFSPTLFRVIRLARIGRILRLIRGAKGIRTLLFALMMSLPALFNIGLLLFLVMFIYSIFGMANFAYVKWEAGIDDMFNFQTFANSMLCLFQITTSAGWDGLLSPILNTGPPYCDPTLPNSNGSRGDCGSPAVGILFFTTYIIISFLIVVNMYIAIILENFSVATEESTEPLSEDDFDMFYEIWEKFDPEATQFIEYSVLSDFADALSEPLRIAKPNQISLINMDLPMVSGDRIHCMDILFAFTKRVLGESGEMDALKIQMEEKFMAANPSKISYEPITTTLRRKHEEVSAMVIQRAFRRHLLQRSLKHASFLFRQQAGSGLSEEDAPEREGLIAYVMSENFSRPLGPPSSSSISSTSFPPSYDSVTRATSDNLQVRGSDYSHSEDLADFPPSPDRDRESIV
Outline: as §1

hERG = hERG (Homo sapiens, UniProt Q12809); experiment: in vitro; details: 100% = no change, <100% = inhibition
Outline: as §1

Kir2.1 = biological target: T7, Kir2.1 (Homo sapiens, UniProt P63252); experiment: Ion channel panel (IonWorks Barracuda): Kir2.1; type: cell-based; details: 100% = no change, <100% = inhibition
T7 construct: host or cells: HEK293 or CHO
Outline: as §1

Kv1.1 = biological target: T8, Kv1.1 (Homo sapiens, UniProt Q09470); experiment: cell-based; type: cell-based; details: 100% = no change, <100% = inhibition
T8 construct: host or cells: HEK293 or CHO
Outline: as §1

Kv1.2 = biological target: T9, Kv1.2 (Homo sapiens, UniProt P16389); experiment: cell-based; type: cell-based; details: 100% = no change, <100% = inhibition
T9 construct: host or cells: HEK293 or CHO
Outline: as §1

Kv1.3 = biological target: T10, Kv1.3 (Homo sapiens, UniProt P22001); experiment: cell-based; type: cell-based; details: 100% = no change, <100% = inhibition
T10 construct: host or cells: HEK293 or CHO
Outline: as §1

Nav1.7 = biological target: T11, Nav1.7 (Homo sapiens, UniProt Q15858); experiment: cell-based; type: cell-based; details: 100% = no change; for Activity of Nav1.7 with peptide, expressed as a percentage of the reference compound: peptide at 0.2 μM; for Activity of Nav1.7 with peptide (percentage of the reference compound): peptide at 20 μM
T11 construct: host or cells: HEK293 or CHO
T11 sequence (Q15858 whole entry): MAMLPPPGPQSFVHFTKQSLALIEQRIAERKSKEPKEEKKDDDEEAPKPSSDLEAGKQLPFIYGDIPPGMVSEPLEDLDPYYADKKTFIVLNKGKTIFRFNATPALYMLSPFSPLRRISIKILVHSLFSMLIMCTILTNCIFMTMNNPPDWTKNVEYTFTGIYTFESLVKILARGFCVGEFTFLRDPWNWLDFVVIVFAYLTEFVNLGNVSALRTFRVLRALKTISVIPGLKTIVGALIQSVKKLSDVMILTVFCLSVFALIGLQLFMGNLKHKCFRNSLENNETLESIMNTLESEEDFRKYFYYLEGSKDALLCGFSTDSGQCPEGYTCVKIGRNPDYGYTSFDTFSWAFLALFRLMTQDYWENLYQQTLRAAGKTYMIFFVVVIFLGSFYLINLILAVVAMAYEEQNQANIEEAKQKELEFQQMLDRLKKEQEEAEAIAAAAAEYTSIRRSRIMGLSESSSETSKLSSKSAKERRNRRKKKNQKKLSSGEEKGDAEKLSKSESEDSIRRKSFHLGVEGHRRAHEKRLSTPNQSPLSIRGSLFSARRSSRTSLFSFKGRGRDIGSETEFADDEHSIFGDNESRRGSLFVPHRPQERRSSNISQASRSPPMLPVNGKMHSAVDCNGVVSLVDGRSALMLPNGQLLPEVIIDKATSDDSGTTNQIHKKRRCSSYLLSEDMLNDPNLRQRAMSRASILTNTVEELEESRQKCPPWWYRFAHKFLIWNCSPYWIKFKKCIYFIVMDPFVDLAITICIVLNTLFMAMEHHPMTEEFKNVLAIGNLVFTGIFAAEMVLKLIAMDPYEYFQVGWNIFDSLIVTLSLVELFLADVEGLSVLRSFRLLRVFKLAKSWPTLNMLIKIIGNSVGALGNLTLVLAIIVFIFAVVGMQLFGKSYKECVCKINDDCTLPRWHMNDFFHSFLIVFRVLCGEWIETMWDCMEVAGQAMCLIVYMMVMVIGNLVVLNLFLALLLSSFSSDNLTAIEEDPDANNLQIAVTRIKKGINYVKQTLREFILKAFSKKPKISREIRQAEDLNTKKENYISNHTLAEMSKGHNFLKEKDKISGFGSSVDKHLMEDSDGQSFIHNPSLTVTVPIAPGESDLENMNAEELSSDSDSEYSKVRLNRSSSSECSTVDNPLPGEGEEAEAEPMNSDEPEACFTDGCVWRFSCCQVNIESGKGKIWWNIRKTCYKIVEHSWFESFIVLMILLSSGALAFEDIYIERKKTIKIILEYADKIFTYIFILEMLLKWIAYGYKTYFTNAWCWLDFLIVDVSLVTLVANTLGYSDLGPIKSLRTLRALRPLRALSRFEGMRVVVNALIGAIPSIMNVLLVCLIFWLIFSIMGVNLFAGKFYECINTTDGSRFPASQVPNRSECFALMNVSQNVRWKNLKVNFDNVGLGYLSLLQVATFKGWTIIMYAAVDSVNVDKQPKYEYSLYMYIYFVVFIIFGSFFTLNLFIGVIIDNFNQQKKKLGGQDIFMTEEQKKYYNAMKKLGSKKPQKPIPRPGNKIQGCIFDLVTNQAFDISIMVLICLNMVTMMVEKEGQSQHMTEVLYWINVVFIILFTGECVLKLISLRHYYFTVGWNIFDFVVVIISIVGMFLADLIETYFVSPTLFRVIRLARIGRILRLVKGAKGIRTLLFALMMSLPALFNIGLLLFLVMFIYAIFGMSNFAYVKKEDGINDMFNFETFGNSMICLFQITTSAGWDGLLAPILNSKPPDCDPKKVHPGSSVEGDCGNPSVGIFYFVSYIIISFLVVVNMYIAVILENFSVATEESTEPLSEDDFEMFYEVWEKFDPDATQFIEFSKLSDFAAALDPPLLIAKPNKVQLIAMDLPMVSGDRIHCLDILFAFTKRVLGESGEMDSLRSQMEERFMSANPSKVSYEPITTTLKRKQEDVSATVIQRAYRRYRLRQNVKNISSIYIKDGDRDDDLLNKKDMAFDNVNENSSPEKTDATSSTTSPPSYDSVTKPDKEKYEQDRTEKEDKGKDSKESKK

NR2A = biological target: T12, NR2A (Homo sapiens, UniProt Q12879); experiment: Ion channel panel (IonWorks Barracuda): NR2A; type: cell-based; details: 100% = no change, <100% = inhibition
T12 construct: host or cells: HEK293 or CHO
Outline: as §1

NR2B = biological target: T13, NR2B (Homo sapiens, UniProt Q13224); experiment: Ion channel panel (IonWorks Barracuda): NR2B; type: cell-based; details: 100% = no change, <100% = inhibition
T13 construct: host or cells: HEK293 or CHO
Outline: as §1

TRPA1 = biological target: T14, TRPA1 (Homo sapiens, UniProt O75762); experiment: Ion channel panel (IonWorks Barracuda): TRPA1; type: cell-based; details: 100% = no change, <100% = inhibition
T14 construct: host or cells: HEK293 or CHO
Outline: as §1

TRPV1 = biological target: T15, TRPV1 (Homo sapiens, UniProt Q8NER1); experiment: Ion channel panel (IonWorks Barracuda): TRPV1; type: cell-based; details: 100% = no change, <100% = inhibition
T15 construct: host or cells: HEK293 or CHO
T15 sequence (Q8NER1 whole entry): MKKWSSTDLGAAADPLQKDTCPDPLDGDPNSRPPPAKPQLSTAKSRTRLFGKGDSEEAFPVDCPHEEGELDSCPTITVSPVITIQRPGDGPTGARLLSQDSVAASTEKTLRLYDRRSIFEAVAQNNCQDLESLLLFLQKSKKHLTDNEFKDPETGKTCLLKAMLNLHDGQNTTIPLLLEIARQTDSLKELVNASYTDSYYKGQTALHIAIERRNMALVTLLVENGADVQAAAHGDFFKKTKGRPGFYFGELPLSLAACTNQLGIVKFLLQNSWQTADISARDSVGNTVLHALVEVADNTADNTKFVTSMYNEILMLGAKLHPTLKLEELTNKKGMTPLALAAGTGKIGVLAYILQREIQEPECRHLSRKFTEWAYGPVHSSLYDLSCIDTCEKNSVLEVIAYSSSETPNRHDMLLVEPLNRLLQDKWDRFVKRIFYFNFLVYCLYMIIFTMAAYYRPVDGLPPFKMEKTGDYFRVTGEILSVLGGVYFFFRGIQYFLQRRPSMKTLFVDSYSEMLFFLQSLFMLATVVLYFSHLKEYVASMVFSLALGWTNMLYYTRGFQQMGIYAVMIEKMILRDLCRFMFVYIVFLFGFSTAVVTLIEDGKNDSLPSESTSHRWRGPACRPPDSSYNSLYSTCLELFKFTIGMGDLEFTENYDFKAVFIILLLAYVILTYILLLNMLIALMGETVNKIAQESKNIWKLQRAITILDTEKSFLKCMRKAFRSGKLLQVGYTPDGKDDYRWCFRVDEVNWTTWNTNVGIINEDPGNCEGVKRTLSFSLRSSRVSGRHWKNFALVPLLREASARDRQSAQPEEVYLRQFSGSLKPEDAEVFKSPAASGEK
Outline: as §1

[1] = first of two Nav1.5 columns (probably TP1)
[2] = second of two Nav1.5 columns (probably TP2)
[3] = first of two Nav1.7 columns (probably TP1)
[4] = second of two Nav1.7 columns (probably TP2)

17 (GSRPTDIKCSASYQCFPVCKSRFGKTNGRCVNGLCDCF) [compound 17]
Activity of 5HT3a with peptide (percentage of the reference compound) (5HT3a): 85% | Activity of 5HT3a with peptide, expressed as a percentage of the reference compound (5HT3a): 81% | Activity of a3b4 with peptide, expressed as a percentage of the reference compound (α3β4; peptide at 0.2 μM): 98% | Activity of a3b4 with peptide (percentage of the reference compound) (α3β4; peptide at 20 μM): 97% | Activity of a4b2 with peptide, expressed as a percentage of the reference compound (α4β2; peptide at 0.2 μM): 93% | Activity of a4b2 with peptide (percentage of the reference compound) (α4β2; peptide at 20 μM): 78% | Activity of Cav2.1 with peptide, expressed as a percentage of the reference compound (Cav2.1; peptide at 0.2 μM): 107% | Activity of Cav2.1 with peptide (percentage of the reference compound) (Cav2.1; peptide at 20 μM): 90% | Activity of Cav2.2 with peptide, expressed as a percentage of the reference compound (Cav2.2; peptide at 0.2 μM): 117% | Activity of Cav2.2 with peptide (percentage of the reference compound) (Cav2.2; peptide at 20 μM): 100% | Activity of Kv2.1 with peptide, expressed as a percentage of the reference compound (Kv2.1; peptide at 0.2 μM): 88% | Activity of Kv2.1 with peptide (percentage of the reference compound) (Kv2.1; peptide at 20 μM): 93% | Activity of GABA with peptide, expressed as a percentage of the reference compound (GABA; peptide at 0.2 μM): 97% | Activity of GABA with peptide (percentage of the reference compound) (GABA; peptide at 20 μM): 108% | Activity of Nav1.5 with peptide, expressed as a percentage of the reference compound (Nav1.5; [1]): 96% | Activity of Nav1.5 with peptide, expressed as a percentage of the reference compound (Nav1.5; [2]): 95% | Activity of Nav1.5 with peptide (percentage of the reference compound) (Nav1.5; [1]): 95% | Activity of Nav1.5 with peptide (percentage of the reference compound) (Nav1.5; [2]): 94% | Activity of hERG with peptide, expressed as a percentage of the reference compound (hERG; peptide at 0.2 μM): 85% | Activity of hERG with peptide (percentage of the reference compound) (hERG; peptide at 20 μM): 8% | Activity of Kir2.1 with peptide, expressed as a percentage of the reference compound (Kir2.1; peptide at 0.2 μM): 103% | Activity of Kir2.1 with peptide (percentage of the reference compound) (Kir2.1; peptide at 20 μM): 84% | Activity of Kv1.1 with peptide, expressed as a percentage of the reference compound (Kv1.1; peptide at 0.2 μM): 106% | Activity of Kv1.1 with peptide (percentage of the reference compound) (Kv1.1; peptide at 20 μM): 89% | Activity of Kv1.2 with peptide, expressed as a percentage of the reference compound (Kv1.2; peptide at 0.2 μM): 97% | Activity of Kv1.2 with peptide (percentage of the reference compound) (Kv1.2; peptide at 20 μM): 47% | Activity of Kv1.3 with peptide, expressed as a percentage of the reference compound (Kv1.3; peptide at 0.2 μM): 96% | Activity of Kv1.3 with peptide (percentage of the reference compound) (Kv1.3; peptide at 20 μM): 6% | Activity of Nav1.7 with peptide, expressed as a percentage of the reference compound (Nav1.7; [3]): 66% | Activity of Nav1.7 with peptide, expressed as a percentage of the reference compound (Nav1.7; [4]): 61% | Activity of Nav1.7 with peptide (percentage of the reference compound) (Nav1.7; [3]): 75% | Activity of Nav1.7 with peptide (percentage of the reference compound) (Nav1.7; [4]): 60% | Activity of NR2A with peptide, expressed as a percentage of the reference compound (NR2A; peptide at 0.2 μM): 83% | Activity of NR2A with peptide (percentage of the reference compound) (NR2A; peptide at 20 μM): 96% | Activity of NR2B with peptide, expressed as a percentage of the reference compound (NR2B; peptide at 0.2 μM): 90% | Activity of NR2B with peptide (percentage of the reference compound) (NR2B; peptide at 20 μM): 77% | Activity of TRPA1 with peptide, expressed as a percentage of the reference compound (TRPA1; peptide at 0.2 μM): 176% | Activity of TRPA1 with peptide (percentage of the reference compound) (TRPA1; peptide at 20 μM): 129% | Activity of TRPV1 with peptide, expressed as a percentage of the reference compound (TRPV1; peptide at 0.2 μM): 99% | Activity of TRPV1 with peptide (percentage of the reference compound) (TRPV1; peptide at 20 μM): 82%
